Target: Orai1 V102A (human, UniProt Q96D31-1 1-301, V102A)
Test: cell-based or functional assay

Sequence of Orai1 V102A (Q96D31 whole entry V102A): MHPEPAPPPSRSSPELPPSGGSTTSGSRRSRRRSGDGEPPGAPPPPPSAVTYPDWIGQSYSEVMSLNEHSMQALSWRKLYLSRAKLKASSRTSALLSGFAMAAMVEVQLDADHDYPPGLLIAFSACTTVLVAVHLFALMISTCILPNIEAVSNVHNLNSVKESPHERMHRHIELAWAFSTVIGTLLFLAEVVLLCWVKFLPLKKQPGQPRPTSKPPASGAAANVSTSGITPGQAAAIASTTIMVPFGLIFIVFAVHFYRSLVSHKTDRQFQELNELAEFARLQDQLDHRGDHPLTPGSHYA

B1: STIM1 Δα2 (STIM1 Δ393-398), CFP/YFP-labeled (natural protein, human, UniProt Q13586-1 23-685, looked up)
chain: LSHSHSEKATGTSSGANSEESTAAEFCRIDKPLCHSEDEKLSFEAVRNIHKLMDDDANGDVDVEESDEFLREDLNYHDPTVKHSTFHGEDKLISVEDLWKAWKSSEVYNWTVDEVVQWLITYVELPQYEETFRKLQLSGHAMPRLAVTNTTMTGTVLKMTDRSHRQKLQLKALDTVLFGPPLLTRHNHLKDFMLVVSIVIGVGGCWFAYIQNRYSKEHMKKMMKDLEGLHRAEQSLHDLQERLHKAQEEHRTVEVEKVHLEKKLRDEINLAKQEAQRLKELREGTENERSRQKYAEEELEQVREALRKAEKELESHSSWYAPEALQKWLQLTHEVEVQYYNIKKQNAEKQLLVAKEGAEKIKKKRNTLFGSSSLDDVDHKILTAKQALSEVTAALRERLHRWQQIEILCGFQIVNNPGIHSLVAALNIDPSWMGSTRPNPAHFIMTDDVDDMDEEIVSPLSMQSPSLQSSVRQRLTEPQHGLGSQRDLTHSDSESSLHMSDRQRVAPKPPQMSRAADEALNAMTSNGSHRLIEGVHPGSLVEKLPDSPALAKKALLALNHGLDKAHSLMELSPSAPPGGSPHLDSSRSHSPSSPDPDTPSPVGDSRALQASRNTRIPHLAGKKAVAEEDNGSIGEETDSSPGRKKFPLKIFKKPLKK
Vrev [mV] of Orai1 V102A currents, whole-cell patch clamp in HEK293 cells: 31.6 mV
